Results as given in publication doi:10.1101/726224 (bioRxiv, 2019).

Biological target: Cyclin B1^165-433 (isolated) (UniProt P14635 165-433)
Assay: SEC

Chain of Cyclin B1^165-433 (isolated) (P14635 165-433): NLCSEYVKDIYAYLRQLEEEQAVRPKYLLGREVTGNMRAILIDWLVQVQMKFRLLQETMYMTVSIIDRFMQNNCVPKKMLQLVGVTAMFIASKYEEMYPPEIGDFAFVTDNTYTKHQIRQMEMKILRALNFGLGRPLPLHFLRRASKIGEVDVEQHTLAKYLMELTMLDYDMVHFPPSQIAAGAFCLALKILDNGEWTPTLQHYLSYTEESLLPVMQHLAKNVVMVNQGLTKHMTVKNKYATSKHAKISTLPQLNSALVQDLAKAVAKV

binding result: binds
Binder: LQMQYQQSMQLEERAEQIRSKS (domain or fragment) [MBP-MAD1^41-62]
